Source: the supplement of paper PMC10567573
± gives the standard deviation.

Assay: protein stability index of a GFP-peptide fusion (GPS, HEK-293T) (PSI 1-6); higher = more stable
[1] = treatment: DMSO, c terminus: a fixed tail appended
[2] = treatment: MLN4924 1 uM, 8 h, c terminus: a fixed tail appended
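Further: 24-mer peptide tiles fused after GFP, lentivirally expressed, FACS-sorted into six equal bins by GFP/DsRed ratio, decoded by Illumina sequencing, PSI is the read-weighted mean bin number.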

Row | Sequence | protein stability index [1] | protein stability index [2] | protein stability index (treatment: DMSO, c terminus: native) | protein stability index (treatment: MLN4924 1 uM, 8 h, c terminus: native)
1 | PEAVDEDRSTEPDRLQVFHKRAIM [ATE1] | 4.8 ± 0.23 | 4.91 ± 0.12 |  | 
2 | KTYHYLYLAMLERFQDGDNILEKE [FEM1B] | 2.03 ± 0.37 | 2.35 ± 0.2 |  | 
3 | VQAWPFTCLPLGVLMKGQHLHLET [PRAME] | 2.58 ± 0.3 | 2.82 ± 0.39 |  | 
4 | IKEIDEHAPGVPKILVGNRLHLAF [RAB40B] | 1.93 ± 0.33 | 2.19 ± 0.36 |  | 
5 | MRRGAPQDQELVGPGPPGRGSRGA [MOSPD3] | 5.31 ± 0.44 | 5 ± 0.28 |  | 
6 | FLLFLLTGIVSVAFLLLPLPDELG [MOSPD3] | 3.36 ± 0.39 | 2.89 ± 0.9 |  | 
7 | FECAWNGSDSVIMTGAYNNFFRMF [PPP2R2C] | 2.5 ± 0.35 | 2.35 ± 0.6 |  | 
8 | KTKTSEYPIIFVYYLRKGKKINSN [SPANXN3] | 2.37 ± 0.59 | 2.01 ± 0.49 |  | 
9 | YEELRNSERAEVQRLEEQERRHRE [RSPH3] | 5.4 ± 0.25 | 5.38 ± 0.28 |  | 
10 | PSPAAVPRPPSNPPARGTLKTSNL [TRAF3IP2] | 5.12 ± 0.1 | 4.94 ± 0.21 |  | 
11 | ATPIVPVVPPTPPVVKKKGVKRKA [BRD3] | 5.33 ± 0.26 | 5.27 ± 0.12 |  | 
12 | QQACTHTKETEQLRSQLQTLKQQH [CCDC89] | 4.71 ± 0.17 | 4.65 ± 0.17 |  | 
13 | GEDIPEKIKDEVHPEVKCVGSVAL [C8orf76] | 4.84 ± 0.39 | 4.81 ± 0.31 |  | 
14 | RTLSLIVCTFTYLLVGAAVFDALE [KCNK9] | 2.82 ± 0.7 | 3.19 ± 0.81 |  | 
15 | AMPPYGQGPPMVPPYQGGPPRPPM [ZNF207] | 3.79 ± 0.45 | 3.92 ± 0.2 |  | 
16 | VVNHLSCDEARNHYGGVVSLIPLI [SPACA9] | 2.2 ± 0.14 | 2.12 ± 0.24 |  | 
17 | RKLLEGEESRISVPVHSFASLNIK [PRPH] | 2.96 ± 0.23 | 3.31 ± 0.41 |  | 
18 | KEDIDLIDILWRQDIDLGAGREVF [NFE2L1] | 2.75 ± 0.57 | 3.47 ± 0.88 |  | 
19 | EDVEAVQKLQDVLHEALQDYEAGQ [ESRRG] | 4.92 ± 0.46 | 4.95 ± 0.51 |  | 
20 | GRKDITSILRAPAYPLELQGQPDP [MOSPD3] | 4.26 ± 0.15 | 4.28 ± 0.35 |  | 
21 | PTSGIVGALMEVMQKRSKAIHSSD [WASL] | 3.14 ± 0.14 | 3.39 ± 0.19 |  | 
22 | NIMMPMGGMMPPGPGIPPLMPGMP [ZNF207] | 2.87 ± 0.29 | 2.88 ± 0.13 |  | 

Row | Sequence | protein stability index [1] | protein stability index [2] | protein stability index (treatment: DMSO, c terminus: native) | protein stability index (treatment: MLN4924 1 uM, 8 h, c terminus: native)
23 | GPAPPPLPPALVPAGGLAPGGGRG [WAS] | 5.09 ± 0.13 | 5.09 ± 0.18 |  | 
24 | EQKRLERLQRKLVEPKHCFTSPDY [SDE2] | 3.25 ± 0.35 | 3.62 ± 0.26 |  | 
25 | PFYPEVELNFISVFWPQLPNGLEA [MMP1] | 2.61 ± 0.28 | 2.62 ± 0.52 |  | 
26 | LPLLRQTAGKVLAHFYGVKLEGKV [ESRRA] | 2.26 ± 0.31 | 2.11 ± 0.18 |  | 
27 | HCIQQILESVNHCHLNGIVHRDLK [CAMK2D] | 2.26 ± 0.047 | 2.36 ± 0.5 |  | 
28 | YQLGEEALLKFREDEGFVREEEDR [KCNA4] | 4.51 ± 0.22 | 4.85 ± 0.31 |  | 
29 | YPENDWDTAAPVPQKDLEIFKNF [PRKX] |  |  | 5.08 ± 0.33 | 5.33 ± 0.25
30 | KRQVPREQAQAYAERLGVTFFEVS [RAB40A] | 3.11 ± 0.17 | 3.21 ± 0.31 |  | 
31 | LELLLDASALTLVLGGRRLRRAWF [SCNN1D] | 2.94 ± 0.81 | 2.4 ± 0.58 |  | 
32 | AAGELPTVECYNPRTNEWTYVAKM [KLHL13] | 3.11 ± 0.37 | 3.2 ± 0.42 |  | 
33 | ERSRDVVDDVSVSLRLWDTFGDHH [RHOBTB2] | 3.7 ± 0.14 | 3.63 ± 0.22 |  | 
34 | GDRMFYRDWWNSTSFSNYYRTWNV [SOAT2] | 2.19 ± 0.16 | 2.28 ± 0.39 |  | 
35 | YIRCQKEVGKSFERHKLKRQDADA [SMG5] | 3.46 ± 0.53 | 3.43 ± 0.23 |  | 
36 | IAERLGCTLPQLAIAWCLRNEGVS [KCNAB2] | 2.88 ± 0.44 | 2.71 ± 0.66 |  | 
37 | QEYEALLNIKVKLEAEIATYRRLL [KRT18] | 2.89 ± 0.28 | 2.82 ± 0.42 |  | 
38 | KGNTTLQQLDLRWNNVGLLGGRAL [LRRC45] | 2.68 ± 0.034 | 2.73 ± 0.26 |  | 
39 | DFQGRILSVDPEEEREEGPPRIPQ [RHOBTB1] | 5.29 ± 0.31 | 5.22 ± 0.22 |  | 
40 | ELDELASKAPVLTYGQPKQAPPAD [EFHC1] | 5.44 ± 0.25 | 5.59 ± 0.15 |  | 
41 | ESDVKHRTRDYKKTSLAPYVKVFE [PRIM1] | 3.39 ± 0.33 | 3.62 ± 0.38 |  | 
42 | SGTPKRYSLELGKAIKQKLWEALC [C22orf31] | 2.9 ± 0.67 | 2.9 ± 0.37 |  | 
43 | RSIRQYYKKGIIRKPDISQRLVYQ [SPDEF] | 2.84 ± 0.24 | 2.97 ± 0.42 |  | 
44 | EGKRKAFYTCASHVTVVILFFVPC [OR4A15] | 2.77 ± 0.18 | 3.03 ± 0.38 |  | 

Row | Sequence | protein stability index [1] | protein stability index [2] | protein stability index (treatment: DMSO, c terminus: native) | protein stability index (treatment: MLN4924 1 uM, 8 h, c terminus: native)
45 | PPFWDEDQHRLYKQIKAGAYDFPS [CAMK2A] | 3.4 ± 0.28 | 3.54 ± 0.29 |  | 
46 | VSVTYCSVSQDFPGSNLNLLTNNS [ETS2] | 2.59 ± 0.39 | 2.32 ± 0.39 |  | 
47 | FDPIVLLPCDLPKVVSRAENLSVP [LPCAT4] | 2.8 ± 0.2 | 2.87 ± 0.3 |  | 
48 | IQYNRRQLLILLQNCTDEGEREAI [POP5] | 2.74 ± 0.3 | 2.78 ± 0.51 |  | 
49 | AQLYEDFLFPIDISLVKREHDFLD [DLC1] | 2.52 ± 0.12 | 2.7 ± 0.28 |  | 
50 | EAYLASLRADQEKERKKREERERK [FAF2] | 5.33 ± 0.35 | 5.46 ± 0.23 |  | 
51 | LSPAQKDLYRDVMLENYSNLVSVG [ZNF649] | 2.37 ± 0.74 | 3.02 ± 0.77 |  | 
52 | AIELFHSYRETRRKEGIVKLKPHE [PTPN9] | 3 ± 0.2 | 3.25 ± 0.27 |  | 
53 | CGYEGCRYGCGHRGCGDGCCCPSC [KRTAP19-2] | 3.72 ± 0.31 | 3.72 ± 0.39 |  | 
54 | PDEERPLRRPRPVQRTQSVPVRRP [RASAL3] | 5.19 ± 0.27 | 5.21 ± 0.18 |  | 
55 | FTFLGKKCVTMSSAVVQLYAADRN [WASL] | 2.33 ± 0.34 | 2.43 ± 0.36 |  | 
56 | ALARKQAQEQLRPQTPEPVEGRKH [RSPH3] | 5.33 ± 0.18 | 5.31 ± 0.28 |  | 
57 | RNKESPVFAPVYFPEELHRKAALE [HMOX1] | 4.11 ± 0.4 | 4.147 ± 0.023 |  | 
58 | SIPQSSLEPLKAIIQYRLPMKKNN [ACSBG2] | 3.48 ± 0.14 | 3.49 ± 0.3 |  | 
59 | KLAEAYLNLGPALSAALASSQKQH [C8orf76] | 2.68 ± 0.69 | 2.82 ± 0.97 |  | 
60 | DPGQDLVPKQAIQVQEADEAGWGG [DLX1] | 5.18 ± 0.28 | 5.22 ± 0.4 |  | 
61 | LGLGTRESHSCPQQVPMPPGQEAQ [NEK8] | 4.98 ± 0.19 | 4.87 ± 0.097 |  | 
62 | DFPEDGLKIFTEDLPEVESLPRDR [VPS39] | 5.31 ± 0.31 | 5.39 ± 0.068 |  | 
63 | KTLLAIGGWNFSTQKFTDMVATAN [CHIT1] | 2.39 ± 0.34 | 2.14 ± 0.21 |  | 
64 | YDMSDTNSDPEVVNVDNLLAAAVV [C18orf25] | 4.06 ± 0.35 | 4.02 ± 0.26 |  | 
65 | NQGYLSEAGASLVDQKLELNIVPR [PI4K2A] | 4.05 ± 0.23 | 4.33 ± 0.28 |  | 
66 | GDDAPKEEVDTGAVNLIESGACGA [INTS4] | 5.5 ± 0.25 | 5.36 ± 0.18 |  | 

Row | Sequence | protein stability index [1] | protein stability index [2] | protein stability index (treatment: DMSO, c terminus: native) | protein stability index (treatment: MLN4924 1 uM, 8 h, c terminus: native)
67 | KGVDFQKFCMNGAALCALGKDCFL [ETS1] | 2.62 ± 0.4 | 2.09 ± 0.28 |  | 
68 | TGSYNNFFRMFDRNTKRDVTLEAS [PPP2R2B] | 3.1 ± 0.26 | 3.47 ± 0.33 |  | 
69 | FGGGSTRGGSLLAGGGGFGGGSLS [KRT15] | 2.54 ± 0.43 | 3.11 ± 0.52 |  | 
70 | QVFRLAFRSGALDLDSCSRDGALL [MYORG] | 2.33 ± 0.29 | 2.14 ± 0.091 |  | 
71 | DLIDNLKEAQYIRTERVEQAFRAI [PCMTD1] | 2.29 ± 0.17 | 2.27 ± 0.14 |  | 
72 | VLTIALPVPVIVSNFNYFYHRETE [KCNA1] | 3.02 ± 0.47 | 3.06 ± 0.41 |  | 
73 | RDGEPEPMQKLQDLVNRTPWKKCC [RBBP5] | 4 ± 0.21 | 4.04 ± 0.21 |  | 
74 | FSQLYLYSFISLFIYMVLSLFIAL [MCOLN1] | 3.28 ± 0.21 | 3.24 ± 0.21 |  | 
75 | FKAWLHNSGTDQEQIHLLLSSQCF [M1AP] | 2.6 ± 0.66 | 2.43 ± 0.39 |  | 
76 | YFLELTQSFIIPLERYVASLMPLQ [DENND6A] | 2.56 ± 0.11 | 3.15 ± 0.33 |  | 
77 | VAAAAAATTAATAAATTTTTTSAA [SNAP91] | 5.39 ± 0.13 | 5.34 ± 0.068 |  | 
78 | DTVTIPVPSEEPQESDQTEEHESG [IQUB] | 5.54 ± 0.29 | 5.72 ± 0.14 |  | 
79 | RELAERGVRIVSRGRTQLFSLNPR [PCDHGA10] | 3.2 ± 0.35 | 3.33 ± 0.12 |  | 
80 | PELTITSLFSPVTEDSPLGTVVAL [PCDHGA10] | 2.56 ± 0.26 | 2.72 ± 0.33 |  | 
81 | LVFQRRMDGQTDFWRDWEDYAHGF [TNXB] | 2.64 ± 0.61 | 1.93 ± 0.51 |  | 
82 | QRFEVIEFDDGSGSVLRIQPLRTP [PTPRD] | 2.68 ± 0.28 | 2.99 ± 0.21 |  | 
83 | ITWFKDFLPVDTSNNNGRIKQLRS [PTPRD] | 2.47 ± 0.52 | 2.96 ± 0.3 |  | 
84 | TAGPITGLVYRLNRFRVEISFHFE [TRIM43] | 3.02 ± 0.7 | 3.2 ± 0.52 |  | 
85 | QTNSTKNSAAATSPKGTLPPAALE [CAMK2B] | 5.32 ± 0.16 | 5.22 ± 0.24 |  | 
86 | YSGPPSPHGTLRVCTISSTGPLQP [PKD2L1] | 2.65 ± 0.57 | 2.83 ± 0.3 |  | 
87 | DRHTKFFEEPEDPSNRSFFSEIIS [PPP2R2B] | 3.38 ± 0.1 | 3.48 ± 0.23 |  | 
88 | MMVNLRACSAPGGLVPSEKPPMMP [C2CD2L] | 2.14 ± 0.26 | 2.29 ± 0.06 |  | 
